Laboratory results as given in IntAct's records for PubMed 31515488.

B1: F-box/WD repeat-containing protein 1A (Homo sapiens), Q9Y297 (parent)
chain: MDPAEAVLQEKALKFMCSMPRSLWLGCSSLADSMPSLRCLYNPGTGALTAFQNSSEREDCNNGEPPRKIIPEKNSLRQTYNSCARLCLNQETVCLASTAMKTENCVAKTKLANGTSSMIVPKQRKLSASYEKEKELCVKYFEQWSESDQVEFVEHLISQMCHYQHGHINSYLKPMLQRDFITALPARGLDHIAENILSYLDAKSLCAAELVCKEWYRVTSDGMLWKKLIERMVRTDSLWRGLAERRGWGQYLFKNKPPDGNAPPNSFYRALYPKIIQDIETIESNWRCGRHSLQRIHCRSETSKGVYCLQYDDQKIVSGLRDNTIKIWDKNTLECKRILTGHTGSVLCLQYDERVIITGSSDSTVRVWDVNTGEMLNTLIHHCEAVLHLRFNNGMMVTCSKDRSIAVWDMASPTDITLRRVLVGHRAAVNVVDFDDKYIVSASGDRTIKVWNTSTCEFVRTLNGHKRGIACLQYRDRLVVSGSSDNTIRLWDIECGACLRVLEGHEELVRCIRFDNKRIVSGAYDGKIKVWDLVAALDPRAPAGTLCLRTLVEHSGRVFRLQFDEFQIVSSSHDDTILIWDFLNDPAAQAEPPRSPSRTYTYISR
B2: Hypoxia-inducible factor 1-alpha inhibitor (Homo sapiens), Q9NWT6 (parent)
chain: MAATAAEAVASGSGEPREEAGALGPAWDESQLRSYSFPTRPIPRLSQSDPRAEELIENEEPVVLTDTNLVYPALKWDLEYLQENIGNGDFSVYSASTHKFLYYDEKKMANFQNFKPRSNREEMKFHEFVEKLQDIQQRGGEERLYLQQTLNDTVGRKIVMDFLGFNWNWINKQQGKRGWGQLTSNLLLIGMEGNVTPAHYDEQQNFFAQIKGYKRCILFPPDQFECLYPYPVHHPCDRQSQVDFDNPDYERFPNFQNVVGYETVVGPGDVLYIPMYWWHHIESLLNGGITITVNFWYKGAPTPKRIEYPLKAHQKVAIMRNIEKMLGEALGNPQEVGPLLNTMIKGRYN
B3: Mediator of RNA polymerase II transcription subunit 18 (Homo sapiens), Q9BUE0 (parent)
chain: MEAPPVTMMPVTGGTINMMEYLLQGSVLDHSLESLIHRLRGLCDNMEPETFLDHEMVFLLKGQQASPFVLRARRSMDRAGAPWHLRYLGQPEMGDKNRHALVRNCVDIATSENLTDFLMEMGFRMDHEFVAKGHLFRKGIMKIMVYKIFRILVPGNTDSTEALSLSYLVELSVVAPAGQDMVSDDMKNFAEQLKPLVHLEKIDPKRLM
partner: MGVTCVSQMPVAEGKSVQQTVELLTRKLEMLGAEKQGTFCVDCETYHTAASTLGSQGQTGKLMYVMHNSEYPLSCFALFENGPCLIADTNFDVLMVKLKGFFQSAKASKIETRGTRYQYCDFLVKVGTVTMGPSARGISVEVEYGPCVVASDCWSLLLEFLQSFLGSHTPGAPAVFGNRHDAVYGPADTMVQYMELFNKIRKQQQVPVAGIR
B4: Leukocyte receptor cluster member 1 (Homo sapiens), Q96BZ8 (parent)
chain: MNILPKKSWHVRNKDNVARVRRDEAQAREEEKERERRVLLAQQEARTEFLRKKARHQNSLPELEAAEAGAPGSGPVDLFRELLEEGKGVIRGNKEYKEEKRQEKERQEKALGILTYLGQSAAEAQTQPPWYQLPPGRGGPPPGPAPDEKIKSRLDPLREMQKHLGKKRQHGGDEGSRSRKEKEGSEKQRPKEPPSLDQLRAERLRREAAERSRAEALLARVQGRALQEGQPEEDETDDRRRRYNSQFNPQLARRPRQQDPHLTH
B5: Endoplasmic reticulum resident protein 27 (Homo sapiens), Q96DN0 (parent)
chain: MEAAPSRFMFLLFLLTCELAAEVAAEVEKSSDGPGAAQEPTWLTDVPAAMEFIAATEVAVIGFFQDLEIPAVPILHSMVQKFPGVSFGISTDSEVLTHYNITGNTICLFRLVDNEQLNLEDEDIESIDATKLSRFIEINSLHMVTEYNPVTVIGLFNSVIQIHLLLIMNKASPEYEENMHRYQKAAKLFQGKILFILVDSGMKENGKVISFFKLKESQLPALAIYQTLDDEWDTLPTAEVSVEHVQNFCDGFLSGKLLKENRESEGKTPKVEL
B6: Ribose-phosphate pyrophosphokinase 1 (Homo sapiens), P60891 (parent)
chain: MPNIKIFSGSSHQDLSQKIADRLGLELGKVVTKKFSNQETCVEIGESVRGEDVYIVQSGCGEINDNLMELLIMINACKIASASRVTAVIPCFPYARQDKKDKSRAPISAKLVANMLSVAGADHIITMDLHASQIQGFFDIPVDNLYAEPAVLKWIRENISEWRNCTIVSPDAGGAKRVTSIADRLNVDFALIHKERKKANEVDRMVLVGDVKDRVAILVDDMADTCGTICHAADKLLSAGATRVYAILTHGIFSGPAISRINNACFEAVVVTNTIPQEDKMKHCSKIQVIDISMILAEAIRRTHNGESVSYLFSHVPL
partner: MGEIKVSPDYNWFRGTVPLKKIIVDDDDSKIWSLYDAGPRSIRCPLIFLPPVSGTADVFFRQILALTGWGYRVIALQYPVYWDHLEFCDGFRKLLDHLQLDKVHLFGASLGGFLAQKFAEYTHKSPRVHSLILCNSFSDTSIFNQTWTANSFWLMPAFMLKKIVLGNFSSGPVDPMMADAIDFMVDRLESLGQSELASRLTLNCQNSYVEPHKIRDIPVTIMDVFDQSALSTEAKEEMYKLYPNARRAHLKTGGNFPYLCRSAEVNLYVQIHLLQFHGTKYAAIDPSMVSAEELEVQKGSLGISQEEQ
B7: Isoform 1 of Cyclin-dependent kinase 2-interacting protein (Homo sapiens), Q9BW66-1 (parent)
chain: MEAKTLGTVTPRKPVLSVSARKIKDNAADWHNLILKWETLNDAGFTTANNIANLKISLLNKDKIELDSSSPASKENEEKVCLEYNEELEKLCEELQATLDGLTKIQVKMEKLSSTTKGICELENYHYGEESKRPPLFHTWPTTHFYEVSHKLLEMYRKELLLKRTVAKELAHTGDPDLTLSYLSMWLHQPYVESDSRLHLESMLLETGHRAL
partner: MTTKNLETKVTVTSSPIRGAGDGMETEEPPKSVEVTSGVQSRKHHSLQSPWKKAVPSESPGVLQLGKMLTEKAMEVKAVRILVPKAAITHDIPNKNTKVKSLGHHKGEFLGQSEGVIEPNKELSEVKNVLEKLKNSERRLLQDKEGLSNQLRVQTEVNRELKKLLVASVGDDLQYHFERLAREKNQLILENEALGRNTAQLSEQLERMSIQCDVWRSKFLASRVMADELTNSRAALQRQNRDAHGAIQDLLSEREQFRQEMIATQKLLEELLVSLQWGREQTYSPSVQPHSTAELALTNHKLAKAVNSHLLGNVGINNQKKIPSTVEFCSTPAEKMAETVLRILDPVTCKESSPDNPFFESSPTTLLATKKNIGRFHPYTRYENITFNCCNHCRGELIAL
B8: Ras-related protein Rab-5C (Homo sapiens), P51148 (parent)
chain: MAGRGGAARPNGPAAGNKICQFKLVLLGESAVGKSSLVLRFVKGQFHEYQESTIGAAFLTQTVCLDDTTVKFEIWDTAGQERYHSLAPMYYRGAQAAIVVYDITNTDTFARAKNWVKELQRQASPNIVIALAGNKADLASKRAVEFQEAQAYADDNSLLFMETSAKTAMNVNEIFMAIAKKLPKNEPQNATGAPGRNRGVDLQENNPASRSQCCSN
partner: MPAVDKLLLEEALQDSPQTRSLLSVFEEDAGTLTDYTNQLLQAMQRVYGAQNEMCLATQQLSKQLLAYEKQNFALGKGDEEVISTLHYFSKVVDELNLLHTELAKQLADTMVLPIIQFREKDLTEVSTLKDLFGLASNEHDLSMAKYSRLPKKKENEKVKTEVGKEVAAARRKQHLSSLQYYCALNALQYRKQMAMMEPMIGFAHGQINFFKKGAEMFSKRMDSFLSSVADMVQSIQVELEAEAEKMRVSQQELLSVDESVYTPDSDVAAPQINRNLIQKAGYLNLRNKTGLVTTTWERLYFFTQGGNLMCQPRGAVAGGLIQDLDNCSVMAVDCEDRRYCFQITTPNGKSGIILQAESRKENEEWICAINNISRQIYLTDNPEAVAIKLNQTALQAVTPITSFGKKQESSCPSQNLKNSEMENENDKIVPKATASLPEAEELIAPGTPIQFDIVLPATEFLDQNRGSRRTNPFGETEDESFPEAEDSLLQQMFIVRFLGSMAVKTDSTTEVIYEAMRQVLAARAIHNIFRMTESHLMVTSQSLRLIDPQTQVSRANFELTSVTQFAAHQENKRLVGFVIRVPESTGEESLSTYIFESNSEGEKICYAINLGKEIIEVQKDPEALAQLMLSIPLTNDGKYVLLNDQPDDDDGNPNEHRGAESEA

Variants of: B1
Settings: with tacc1_human TACC1, O75410
tacc1_human TACC1, O75410, sequence (O75410 whole entry): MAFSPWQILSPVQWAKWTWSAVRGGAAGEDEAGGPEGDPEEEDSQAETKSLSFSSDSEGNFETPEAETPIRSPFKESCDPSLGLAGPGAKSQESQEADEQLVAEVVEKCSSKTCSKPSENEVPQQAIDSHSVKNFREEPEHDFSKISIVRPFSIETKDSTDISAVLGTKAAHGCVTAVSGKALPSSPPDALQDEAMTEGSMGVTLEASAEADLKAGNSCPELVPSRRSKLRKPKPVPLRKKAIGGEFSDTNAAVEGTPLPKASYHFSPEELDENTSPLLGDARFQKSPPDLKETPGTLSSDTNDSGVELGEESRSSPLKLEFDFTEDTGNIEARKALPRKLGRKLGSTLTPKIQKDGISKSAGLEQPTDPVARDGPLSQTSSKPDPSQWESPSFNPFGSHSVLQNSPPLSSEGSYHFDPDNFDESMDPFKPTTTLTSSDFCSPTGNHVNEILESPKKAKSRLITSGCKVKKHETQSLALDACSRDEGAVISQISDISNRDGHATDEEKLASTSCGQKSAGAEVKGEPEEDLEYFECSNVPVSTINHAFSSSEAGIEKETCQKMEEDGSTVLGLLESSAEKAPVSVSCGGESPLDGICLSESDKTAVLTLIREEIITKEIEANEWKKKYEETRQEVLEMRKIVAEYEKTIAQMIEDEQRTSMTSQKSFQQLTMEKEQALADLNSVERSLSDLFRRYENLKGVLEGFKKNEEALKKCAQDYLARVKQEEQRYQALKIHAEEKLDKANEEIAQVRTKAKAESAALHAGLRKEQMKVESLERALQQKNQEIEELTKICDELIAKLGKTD

| Variant | effect of a mutation on the interaction |
| --- | --- |
| P592H | with no effect |
| T414A | disrupting interaction strength |
| I439V | disrupting interaction strength |
| L8M | with no effect |
| T601S | with no effect |
| R594H | with no effect |

Variants of: B2
Settings: with asb9_human ASB9, Q96DX5
asb9_human ASB9, Q96DX5, sequence (Q96DX5 whole entry): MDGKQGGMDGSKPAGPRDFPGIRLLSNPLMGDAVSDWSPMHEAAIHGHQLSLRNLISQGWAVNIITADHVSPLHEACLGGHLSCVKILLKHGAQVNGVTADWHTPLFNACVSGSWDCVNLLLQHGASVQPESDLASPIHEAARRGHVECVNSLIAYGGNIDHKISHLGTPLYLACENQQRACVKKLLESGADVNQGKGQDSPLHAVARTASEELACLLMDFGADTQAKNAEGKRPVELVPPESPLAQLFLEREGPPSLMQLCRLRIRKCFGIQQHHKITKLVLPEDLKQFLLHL

| Variant | effect of a mutation on the interaction |
| --- | --- |
| P41A | with no effect |

Variants of: B3
Settings: with med20_human MED20, Q9H944

| Variant | effect of a mutation on the interaction |
| --- | --- |
| M19V | with no effect |

Variants of: B4
Settings: with cep70_human CEP70, Q8NHQ1
cep70_human CEP70, Q8NHQ1, sequence (Q8NHQ1 whole entry): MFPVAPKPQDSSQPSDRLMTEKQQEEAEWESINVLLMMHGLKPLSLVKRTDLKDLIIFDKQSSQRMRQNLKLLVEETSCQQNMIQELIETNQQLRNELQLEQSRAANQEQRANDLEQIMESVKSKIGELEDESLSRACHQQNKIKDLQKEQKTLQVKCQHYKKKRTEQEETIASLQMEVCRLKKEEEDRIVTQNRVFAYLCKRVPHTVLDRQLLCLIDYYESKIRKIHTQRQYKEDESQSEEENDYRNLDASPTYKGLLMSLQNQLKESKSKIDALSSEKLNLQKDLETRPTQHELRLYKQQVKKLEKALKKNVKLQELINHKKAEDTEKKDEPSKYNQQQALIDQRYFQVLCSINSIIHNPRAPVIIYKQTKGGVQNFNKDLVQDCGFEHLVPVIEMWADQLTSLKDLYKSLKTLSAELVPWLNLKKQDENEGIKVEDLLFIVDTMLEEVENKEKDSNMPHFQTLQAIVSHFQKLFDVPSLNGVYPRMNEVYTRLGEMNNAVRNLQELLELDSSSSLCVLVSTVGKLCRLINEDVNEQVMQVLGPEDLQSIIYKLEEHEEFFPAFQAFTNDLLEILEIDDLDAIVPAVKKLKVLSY

| Variant | effect of a mutation on the interaction |
| --- | --- |
| K97Q | with no effect |

Variants of: B4
Settings: with trim1_human MID2, Q9UJV3
trim1_human MID2, Q9UJV3, sequence (Q9UJV3 whole entry): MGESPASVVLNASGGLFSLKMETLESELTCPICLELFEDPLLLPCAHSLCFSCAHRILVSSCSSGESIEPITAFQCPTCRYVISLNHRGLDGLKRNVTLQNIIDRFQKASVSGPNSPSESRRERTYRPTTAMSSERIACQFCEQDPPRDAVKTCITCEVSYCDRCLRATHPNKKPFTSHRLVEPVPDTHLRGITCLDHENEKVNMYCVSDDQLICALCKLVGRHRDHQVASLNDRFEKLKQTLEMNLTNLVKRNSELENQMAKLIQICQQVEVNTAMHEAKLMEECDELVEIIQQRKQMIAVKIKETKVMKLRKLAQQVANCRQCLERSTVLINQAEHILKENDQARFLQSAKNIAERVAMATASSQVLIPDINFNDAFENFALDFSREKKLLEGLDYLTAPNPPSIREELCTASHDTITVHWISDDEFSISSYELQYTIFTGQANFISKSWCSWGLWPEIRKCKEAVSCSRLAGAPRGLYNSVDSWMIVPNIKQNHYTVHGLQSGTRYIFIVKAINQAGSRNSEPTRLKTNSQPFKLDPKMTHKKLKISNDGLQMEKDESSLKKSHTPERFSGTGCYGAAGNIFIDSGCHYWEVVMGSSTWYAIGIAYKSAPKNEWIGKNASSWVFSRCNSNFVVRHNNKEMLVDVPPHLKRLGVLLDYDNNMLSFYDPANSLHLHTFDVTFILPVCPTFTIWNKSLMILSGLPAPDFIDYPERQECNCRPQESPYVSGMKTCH

| Variant | effect of a mutation on the interaction |
| --- | --- |
| K97Q | with no effect |

Variants of: B4
Settings: with rop1a_human ROPN1, Q9HAT0
rop1a_human ROPN1, Q9HAT0, sequence (Q9HAT0 whole entry): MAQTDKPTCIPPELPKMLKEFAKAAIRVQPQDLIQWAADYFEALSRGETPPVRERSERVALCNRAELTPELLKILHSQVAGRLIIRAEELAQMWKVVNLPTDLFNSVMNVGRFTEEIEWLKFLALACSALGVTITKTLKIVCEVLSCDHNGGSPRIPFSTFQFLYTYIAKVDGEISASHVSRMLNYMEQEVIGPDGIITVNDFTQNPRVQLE

| Variant | effect of a mutation on the interaction |
| --- | --- |
| K97Q | with no effect |

Variants of: B4
Settings: with ldoc1_human LDOC1, O95751
ldoc1_human LDOC1, O95751, sequence (O95751 whole entry): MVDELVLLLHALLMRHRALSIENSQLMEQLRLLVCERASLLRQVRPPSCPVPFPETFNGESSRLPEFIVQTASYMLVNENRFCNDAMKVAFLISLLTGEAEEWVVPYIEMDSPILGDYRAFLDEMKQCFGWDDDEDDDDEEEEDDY

| Variant | effect of a mutation on the interaction |
| --- | --- |
| K97Q | with no effect |

Variants of: B4
Settings: with cc136_human CCDC136, Q96JN2
cc136_human CCDC136, Q96JN2, sequence (Q96JN2 whole entry): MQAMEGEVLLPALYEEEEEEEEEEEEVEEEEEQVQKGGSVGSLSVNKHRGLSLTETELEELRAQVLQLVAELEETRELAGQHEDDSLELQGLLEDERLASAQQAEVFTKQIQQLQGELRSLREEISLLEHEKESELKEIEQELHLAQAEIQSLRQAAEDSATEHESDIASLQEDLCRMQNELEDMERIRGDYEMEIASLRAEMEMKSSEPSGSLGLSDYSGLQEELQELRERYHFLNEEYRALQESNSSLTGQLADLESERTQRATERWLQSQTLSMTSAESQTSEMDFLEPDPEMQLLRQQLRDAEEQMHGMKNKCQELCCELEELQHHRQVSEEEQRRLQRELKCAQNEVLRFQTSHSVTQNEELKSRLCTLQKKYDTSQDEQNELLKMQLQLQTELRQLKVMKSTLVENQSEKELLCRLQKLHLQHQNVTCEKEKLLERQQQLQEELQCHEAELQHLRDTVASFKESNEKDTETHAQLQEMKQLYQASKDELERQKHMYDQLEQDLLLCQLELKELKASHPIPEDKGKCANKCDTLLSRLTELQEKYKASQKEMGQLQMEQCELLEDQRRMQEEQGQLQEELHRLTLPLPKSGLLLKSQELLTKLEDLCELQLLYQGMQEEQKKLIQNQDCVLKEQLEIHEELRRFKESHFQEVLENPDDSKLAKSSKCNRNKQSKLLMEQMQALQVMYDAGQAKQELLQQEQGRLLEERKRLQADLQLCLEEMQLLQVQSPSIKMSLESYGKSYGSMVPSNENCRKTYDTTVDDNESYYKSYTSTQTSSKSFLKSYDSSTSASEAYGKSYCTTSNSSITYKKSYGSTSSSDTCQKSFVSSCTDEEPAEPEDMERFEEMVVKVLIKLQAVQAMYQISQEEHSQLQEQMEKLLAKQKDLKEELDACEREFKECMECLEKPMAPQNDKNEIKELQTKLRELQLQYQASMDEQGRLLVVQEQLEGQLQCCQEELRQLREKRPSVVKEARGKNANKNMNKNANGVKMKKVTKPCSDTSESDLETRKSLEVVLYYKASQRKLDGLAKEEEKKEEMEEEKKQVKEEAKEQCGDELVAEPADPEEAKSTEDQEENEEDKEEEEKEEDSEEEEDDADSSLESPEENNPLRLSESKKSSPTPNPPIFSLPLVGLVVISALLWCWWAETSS

| Variant | effect of a mutation on the interaction |
| --- | --- |
| R256C | disrupting interaction strength |

Variants of: B5
Settings: with ef1d_human EEF1D

| Variant | effect of a mutation on the interaction |
| --- | --- |
| E122K | with no effect |

Variants of: B5
Settings: with ubql1_human UBQLN1, Q9UMX0
ubql1_human UBQLN1, Q9UMX0, sequence (Q9UMX0 whole entry): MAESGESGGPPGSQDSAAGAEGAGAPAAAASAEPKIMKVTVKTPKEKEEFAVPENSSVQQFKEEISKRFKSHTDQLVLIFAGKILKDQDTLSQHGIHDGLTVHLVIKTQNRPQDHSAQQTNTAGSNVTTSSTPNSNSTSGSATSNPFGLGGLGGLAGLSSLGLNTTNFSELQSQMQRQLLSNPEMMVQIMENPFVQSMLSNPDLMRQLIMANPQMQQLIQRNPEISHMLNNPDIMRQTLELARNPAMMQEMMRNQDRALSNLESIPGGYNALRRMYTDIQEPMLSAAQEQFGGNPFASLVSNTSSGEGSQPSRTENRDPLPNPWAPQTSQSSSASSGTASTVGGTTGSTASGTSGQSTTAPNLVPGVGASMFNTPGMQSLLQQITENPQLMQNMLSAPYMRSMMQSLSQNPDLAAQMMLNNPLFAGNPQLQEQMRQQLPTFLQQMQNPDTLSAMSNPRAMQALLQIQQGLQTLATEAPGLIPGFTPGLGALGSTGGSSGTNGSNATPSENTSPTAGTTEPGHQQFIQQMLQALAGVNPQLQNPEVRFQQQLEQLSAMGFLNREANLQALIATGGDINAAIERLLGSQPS

| Variant | effect of a mutation on the interaction |
| --- | --- |
| E122K | with no effect |

Variants of: B5
Settings: with sgta_human SGTA

| Variant | effect of a mutation on the interaction |
| --- | --- |
| E122K | with no effect |

Variants of: B6
Settings: with spg21_human SPG21, Q9NZD8

| Variant | effect of a mutation on the interaction |
| --- | --- |
| D183H | with no effect |
| E43D | with no effect |

Variants of: B7
Settings: with go45_human BLZF1, Q9H2G9

| Variant | effect of a mutation on the interaction |
| --- | --- |
| D177N | with no effect |

Variants of: B7
Settings: with go45_human BLZF1, Q9H2G9
Remark: another data set of the same source

| Variant | effect of a mutation on the interaction |
| --- | --- |
| R164H | with no effect |

Variants of: B8
Settings: with dp13b_human APPL2, Q8NEU8

| Variant | effect of a mutation on the interaction |
| --- | --- |
| R196Q | with no effect |
| N206S | with no effect |

Variants of: B8
Settings: with dp13b_human APPL2, Q8NEU8
Remark: another data set of the same source

| Variant | effect of a mutation on the interaction |
| --- | --- |
| G93R | with no effect |
